Assays:
[1] = system: HfqPae (wild type) (Pseudomonas aeruginosa PAO1); assay: MST; settings: 1 mM Mg2+, 25 C, MST: 10 mM Tris pH 8.0, 40 mM NaCl, 10 mM KCl, 1 mM MgCl2, 0.05% Tween, EMSA: 10 mM Tris-HCl pH 8.0, 10 mM MgCl2, 60 mM NaCl, 10 mM NaH2PO4, 10 mM DTT …
[2] = molecular target: HfqPae (wild type) (Pseudomonas aeruginosa PAO1) (UniProt Q9HUM0); assay: EMSA; settings: MST: 10 mM Tris pH 8.0, 40 mM NaCl, 10 mM KCl, 1 mM MgCl2, 0.05% Tween, 25 C; EMSA: 10 mM Tris-HCl pH 8.0, 10 mM MgCl2, 60 mM NaCl, 10 mM NaH2PO4, 10 mM DTT …
[3] = molecular target: HfqPae (wild type) (Pseudomonas aeruginosa PAO1) (UniProt Q9HUM0); assay: MST; settings: MST: 10 mM Tris pH 8.0, 40 mM NaCl, 10 mM KCl, 1 mM MgCl2, 0.05% Tween, 25 C; EMSA: 10 mM Tris-HCl pH 8.0, 10 mM MgCl2, 60 mM NaCl, 10 mM NaH2PO4, 10 mM DTT …
[4] = molecular target: HfqPaeY25DFlag Y25D (Pseudomonas aeruginosa PAO1) (UniProt Q9HUM0); assay: EMSA; settings: MST: 10 mM Tris pH 8.0, 40 mM NaCl, 10 mM KCl, 1 mM MgCl2, 0.05% Tween, 25 C; EMSA: 10 mM Tris-HCl pH 8.0, 10 mM MgCl2, 60 mM NaCl, 10 mM NaH2PO4, 10 mM DTT …

antR(-95-+67) mRNA fragment
Kd ([1]; 20 nM labelled Hfq): 37.3 nM

GGACUGGUCGCGAGGCCAGCAGGUAAGCUGAGAGACCAAGCAGUCGGACUCUUCAGAUUAUCUCCUCAUCAGGCUAAUCACGGUUUCGACCCGGCACUUUGCCGGGUCUUUUUUUG [PrrF2 sRNA]
binding [2]: binds

CrcZ RNA
Kd ([1]; 30 nM labelled Hfq): 7.4 nM

GGGAGCCGGCCUUGCGCCGGCAUAUGCCUUGCAUUUUGCUGAAAACAGAGCGCCAGCAGAGCGCACCCCCAGCCUUGCCGUGUCGAGUGCCGAACCAUGAUGAGGACCCAUCCCGUCGCCGAUCGUGGCGAUCUCCAUGCCGACCACCUGGACCUGGCCGCCG [antR(-95-+67) mRNA fragment]
Kd [3]: 37.3 nM | binding [4]: no binding

Source: paper PMC5501646
